Measured values taken from US20200407433A1.

Target: Primate CGRP (primate (macaque))
Assay: ELISA, primate CGRP binding

Sequence of Primate CGRP (primate (macaque)) (P06881 83-119): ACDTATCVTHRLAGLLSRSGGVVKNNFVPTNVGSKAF

Row | EC50 | Binder
1 | 0.101 nM | murine mAb 6G5C8C4 (antibody, mouse IgG2a, V domains shown) VH: EVQLQQSGPELVKPGASVKISCKASGYTFTDYYMNWVKQSHGKSLEWIGDINPNNGGTTYNQKFKGKATLTVDKSSTTAYMELRSLTSEDSAVYYCAVITIVPYYFDYWGQGTTLTVSS VL: DIVMTQSQKFMSTSVGDRVSVTCKASQNVGSNVAWYQQKPGQSPKALIYSASFRYSRVPDRFSGSGSGTDFTLTISNVQSEDLADYFCQQYNSYPYTFGAGTKLELK
2 | 0.072 nM | murine mAb 24G7B10G2 (antibody, mouse IgG2a, V domains shown) VH: EVQLLQSGPELMKPGTSVKISCKASGYTFTDYYMNWVKQSHGKSLEWIGDVNPNNGDTTYNQKFKGKATLTIDKSSSTAYMELRSLTSEDSAVYYCASITIVPLYFDFWGQGTTLAVSS VL: DIVMTQSQKFMSTSVGDRVSVTCKASQNVGINVAWYQQKPGQSPKALLYSASYRYSGVPDRFTGSGSGTDFTLTISNVKSGDLAEYFCQQYNTYPYTFGGGTKLEIK
3 | 0.07 nM | murine mAb 30B8G9B11 (antibody, mouse IgG2a, V domains shown) VH: EVQLQQSGPELVKPGASVKISCKASGYTFTDYYMNWVKQSHGKSLEWIGDVNPNNGGTHYNQKFKGKATLTVDKSSSTAYMELRSLTSEDSAVYYCASITIVPVYFDFWGQGTTLTVSS VL: DIVMTQSQKFMSTSVGDRVSVTCKASQNVGPNVAWYRQKPGQSPKALIYSASYRYSGVPDRFTGSGSGTDFTLTISNVQSEDLADYICQQYNYYPYTFGGGTKLEIK
